# Patent US20170088602A1 (Bristol-Myers Squibb, published 2017)
# Like-named read-outs stand apart in the source and are kept apart here.
# T1: human myostatin (mature, recombinant; R&D Systems) (human, UniProt O14793 267-375)
# T1 sequence: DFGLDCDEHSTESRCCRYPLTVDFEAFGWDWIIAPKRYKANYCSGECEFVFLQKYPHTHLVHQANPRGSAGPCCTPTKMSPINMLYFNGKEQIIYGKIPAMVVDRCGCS
# T2: human Activin A (R&D Systems) (human, UniProt P08476 311-426)
# T2 sequence (looked up): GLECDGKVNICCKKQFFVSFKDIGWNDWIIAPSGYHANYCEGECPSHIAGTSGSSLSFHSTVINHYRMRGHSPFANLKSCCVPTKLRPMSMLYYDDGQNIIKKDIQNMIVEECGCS
# T3: human BMP-11 (GDF-11; R&D Systems) (human, UniProt O95390 299-407)
# T3 sequence (looked up): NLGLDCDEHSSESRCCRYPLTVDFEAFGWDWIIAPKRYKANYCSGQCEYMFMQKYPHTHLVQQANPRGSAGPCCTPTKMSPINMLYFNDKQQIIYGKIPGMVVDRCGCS
# Key:
# [1] = target: T1, human myostatin (mature, recombinant; …); experiment: cell-based or functional assay
# [2] = target: T2, human Activin A (R&D Systems); experiment: cell-based or functional assay
# [3] = target: T3, human BMP-11 (GDF-11; R&D Systems); experiment: cell-based or functional assay
# [4] = target: T1, human myostatin (mature, recombinant; …); experiment: SPR format A, 25C
# Text: (§1) Anti-human Fc antibody (Biacore/GE) was immobilized on a Biacore CM5 chip via NHS/EDC coupling according to the manufacturer's instructions. […] A concentration range of anti-myostatin Adnectin was applied across all flow cells in HBSP running buffer. Regeneration of the chip surface between cycles was accomplished with two 30 second pulses of 3M MgCl₂. Kinetic traces of reference-subtracted sensorgrams were fit to a 1:1 binding model using Biaevaluation software.
# [5] = target: T2, human Activin A (R&D Systems); experiment: SPR format A, 25C
# Text: as §1
# [6] = target: T3, human BMP-11 (GDF-11; R&D Systems); experiment: SPR format A, 25C
# Text: as §1
# [7] = target: T1, human myostatin (mature, recombinant; …); experiment: cell-based or functional assay; remark: listed apart in the source
# [8] = target: T1, human myostatin (mature, recombinant; …); experiment: competitive HTRF (1889E01/myostatin/ActRIIb-Fc sandwich)
# Text: An HTRF assay was used to measure the binding affinities of anti-myostatin Adnectins to myostatin. […] The Eu-W 1024 labeled Streptavidin is used to bind biotinylated 1889E01. […] In the presence of a competitive Adnectin, the HTRF signal decreases.
# [9] = target: T1, human myostatin (mature, recombinant; …); experiment: cell-based or functional assay; remark: listed apart in the source
# [10] = target: T2, human Activin A (R&D Systems); experiment: cell-based or functional assay; remark: listed apart in the source
# [11] = target: T3, human BMP-11 (GDF-11; R&D Systems); experiment: cell-based or functional assay; remark: listed apart in the source
# [12] = target: T1, human myostatin (mature, recombinant; …); experiment: cell-based or functional assay; remark: listed apart in the source
# [13] = target: T1, human myostatin (mature, recombinant; …); experiment: competitive HTRF, alanine scan
# [14] = target: T1, human myostatin (mature, recombinant; …); experiment: cell-based or functional assay; remark: listed apart in the source
Binder,ARE-luciferase IC50 [1] [nM],ARE-luciferase IC50 [2] [nM],ARE-luciferase IC50 [3] [nM],Kd [4] [nM],binding result [5],Kd [6] [nM],"pSmad2 IC50, 12-point [7] [nM]",IC50 [8] [nM],ARE-luciferase IC50 [9] [nM],ARE-luciferase IC50 [10] [nM],ARE-luciferase IC50 [11] [nM],"ARE-luciferase cell-based assay, IC50 relative to parent sequence [12] [fold]",IC50 [13] [nM],Myostatin ARE-luc IC50 [14] [nM]
"1979_B06 (designed binder, monoAdnectin with His6 tag; also called ATI-1133) MGVSDVPRDLEVVAATPTSLLISWSLPHAGHVNYYRITYGETGGNSPVQEFTVPGRGVTATISGLKPGVDYTITVYAVTLTKSQMIHYMPISINYRTEIDKPSQHHHHHH",0.11,194,3.3,29,no binding,489,12.8,,,,,,,
2524_C11 (designed binder) MGVSDVPRDLEVVAATPTSLLISWTLPHAGLAHYYRITYGETGGNSPVQEFTVPGRGVTATISGLKPGVDYTITVYAVTLTNSEIILYKPISINYRTEIDKPSQHHHHHH,0.1,765,0.89,0.62,no binding,0.67,0.14,,,,,,,
"2062_G02 (designed binder, also called ATI-1134) MGVSDVPRDLEVVAATPTSLLISWVSPRGRARYYRITYGETGGNSPVQEFTVPGRGSTATISGLKPGVDYTITVYAVTIYRDGMSHHDPISINYRTEIDKPSQHHHHHH",205,> 1500,1500,48.8,no binding,697,59.1,,,,,,,
"ATI-1376 [40K 2-branch PEG] (designed binder, 40K 2-branch PEG on the Cys of the EGSGC tail, cysteine mutant of 3115_E06) MGVSDVPRDLEVVAATPTSLLISWDAPAGLARYYRITYGETGGNSPVQEFTVVGRGNTATISGLKPGVDYTITVYAVTIFRDGPVTWDPISINYRTEGSGCHHHHHH",,,,8.21,,13.4,,0.32,0.03,> 1000,0.83,,,
"ATI-1377 [40K 2-branch PEG] (designed binder, 40K 2-branch PEG on the Cys of the EGSGC tail) MGVSDVPRDLEVVAATPTSLLISWDAPKGLARYYRITYGETGGNSPVQEFTVVGRGNTATISGLKPGVDYTITVYAVTIFRDGPVTWDPISINYRTEGSGCHHHHHH",,,,8.21,,14.2,,0.15,0.05,> 1000,0.78,,,
3116_A06 L86A (designed binder) MGVSDVPRDLEVVAATPTSLLISWSLPHQGKANYYRITYGETGGNSPVQEFTVPGRGVTATISGLKPGVDYTITVYAVTVTDTGYAKYKPISINYRTEIDKPSQHHHHHH,,,,,,,,,,,,> 10,1.4,12
3116_A06 L26A (designed binder) MGVSDVPRDLEVVAATPTSLLISWSAPHQGKANYYRITYGETGGNSPVQEFTVPGRGVTATISGLKPGVDYTITVYAVTVTDTGYLKYKPISINYRTEIDKPSQHHHHHH,,,,,,,,,,,,> 10,2.3,16
3116_A06 P27A (designed binder) MGVSDVPRDLEVVAATPTSLLISWSLAHQGKANYYRITYGETGGNSPVQEFTVPGRGVTATISGLKPGVDYTITVYAVTVTDTGYLKYKPISINYRTEIDKPSQHHHHHH,,,,,,,,,,,,> 10,1,10

# The remaining lines, values ahead:
ARE-luciferase IC50 [1] [nM],ARE-luciferase IC50 [2] [nM],ARE-luciferase IC50 [3] [nM],Kd [4] [nM],binding result [5],Kd [6] [nM],"pSmad2 IC50, 12-point [7] [nM]",IC50 [8] [nM],ARE-luciferase IC50 [9] [nM],ARE-luciferase IC50 [10] [nM],ARE-luciferase IC50 [11] [nM],"ARE-luciferase cell-based assay, IC50 relative to parent sequence [12] [fold]",IC50 [13] [nM],Myostatin ARE-luc IC50 [14] [nM],Binder
0.03,> 1000,6.2,1.12,no binding,1.22,0.11,,,,,,,,2524_H11 (designed binder) MGVSDVPRDLEVVAATPTSLLISWSLPHAGHAHYYRITYGETGGNSPVQEFTVPGRGVTATISGLKPGVDYTITVYAVTVSSTKVIVYLPISINYRTEIDKPSQHHHHHH
0.09,> 1000,5.6,1.34,no binding,1.42,0.13,,,,,,,,2524_E10 (designed binder) MGVSDVPRDLEVVAATPTSLLISWSLPFAGHLNYYRITYGETGGNSPVQEFTVPGRGVTATISGLKPGVDYTITVYAVTLTRSKIIHYMPISINYRTEIDKPSQHHHHHH
0.11,> 1000,3.9,1.28,no binding,1.99,0.2,,,,,,,,2525_D05 (designed binder) MGVSDVPRDLEVVAATPTSLLISWSLPYAGHLNYYRITYGETGGNSPVQEFTVPGRGVTATISGLKPGVDYTITVYAVTLTKSQLIHYMPISINYRTEIDKPSQHHHHHH
,,,7.9,,35.5,,0.36,0.26,> 1000,3.1,,,,"ATI-1359 [40K 2-branch PEG] (designed binder, 40K 2-branch PEG on the Cys of the EGSGC tail) MGVSDVPRDLEVVAATPTSLLISWTLPHAGRAHYYRITYGETGGNSPVQEFTVPGRGVTATISGLKPGVDYTITVYAVTVTTTKVIHYKPISINYRTEGSGC"
,,,9.5,,21.6,,0.28,0.1,> 1000,4.3,,,,"ATI-1379 [40K 2-branch PEG] (designed binder, 40K 2-branch PEG on the Cys of the EGSGC tail) MGVSDVPRDLEVVAATPTSLLISWSLPHQGKANYYRITYGETGGNSPVQEFTVPGRGVTATISGLKPGVDYTITVYAVTVTDTGYLKYKPISINYRTEGSGCHHHHHH"
,,,12.6,,33.2,,0.76,0.17,> 1000,1.6,,,,"ATI-1375 [40K 2-branch PEG] (designed binder, 40K 2-branch PEG on the Cys of the EGSGC tail, cysteine mutant of 3115_D04) MGVSDVPRDLEVVAATPTSLLISWDAPRGLARYYRITYGETGGNSPVQEFTVFGRGTTATISGLKPGVDYTITVYAVTIDRDGTRSFDPISINYRTEGSGCHHHHHH"
,,,,,,,,,,,> 10,0.8,6.2,3116_A06 H28A (designed binder) MGVSDVPRDLEVVAATPTSLLISWSLPAQGKANYYRITYGETGGNSPVQEFTVPGRGVTATISGLKPGVDYTITVYAVTVTDTGYLKYKPISINYRTEIDKPSQHHHHHH
,,,,,,,,,,,> 10,2,5.5,3116_A06 Y85A (designed binder) MGVSDVPRDLEVVAATPTSLLISWSLPHQGKANYYRITYGETGGNSPVQEFTVPGRGVTATISGLKPGVDYTITVYAVTVTDTGALKYKPISINYRTEIDKPSQHHHHHH
,,,,,,,,,,,> 10,2,9.8,3116_A06 N33A (designed binder) MGVSDVPRDLEVVAATPTSLLISWSLPHQGKAAYYRITYGETGGNSPVQEFTVPGRGVTATISGLKPGVDYTITVYAVTVTDTGYLKYKPISINYRTEIDKPSQHHHHHH
